The values below come from the supplement of paper PMC7877785.

The data set is described as follows: self-splicing fitness, log relative to wild type (ln ratio); higher = more splicing; Tetrahymena group I intron in knt gene, E. coli kanamycin selection, DiMSum; sequences stand for … in CUCUCU…GGAGGGAAAAGUUAUCAGGCAUGCACCUGGUAGCUAGUCUUUAAACCAAUAGAUUGCAUCGGUUUAAAAGGCAAGACCGUCAAAUUGCGGGAAAGGGGUCAACAGCCGUUCAGUACCAAGUCUCAGGGGAAACUUUGAGAUGGCCUUGCAAAGGGUAUGGUAAUAAGCUGACGGACAUGGUCCUAACCACGCAGCCAAGUCCUAAGUCAACAGAUCUUCUGUUGAUAUGGAUGCAGUUCACAGACUAAAUGUCGGUCGGGGAAGAUGUAUUCUUCUCAUAAGAUAUAGUCGGACCUCUCCUUAAUGGGAGCUAGCGGAUGAAGUGAUGCAACACUGGAGCCGCUGGGAACUAAUUUGUAUGCGAAAGUAUAUUGAUUAGUUUUGGAGUACUCGUGGUCG
Summed up:
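Library with all eight P1ex-region intron nucleotides randomised, intron inside the knt kanamycin-resistance gene on pET-22b(+), in E. coli BL21(DE3). Cells grew overnight at 37°C or 30°C on LB agar with or without 25 μg/mL kanamycin (plus 100 μg/mL carbenicillin, 50 μM IPTG, 0.2% rhamnose), in six replicate transformations. Pooled colonies were amplicon-sequenced on Illumina HiSeq 2500. DiMSum fitness is the error-weighted combination of wild-type-normalised replicate fold changes, kanamycin versus none.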

± gives the uncertainty stated by the source.

Take CUGGAGCAAUAUUACGACGU: under “37 °C”, the “self-splicing fitness (ln)” value was -1.09 ± 0.2. Consider CUGGAGCAAUAUUACGACUA, for which the “self-splicing fitness (ln)” value (30 °C) is -1.37 ± 0.28 and the “self-splicing fitness (ln)” value (37 °C) is -1.38 ± 0.31. Regarding CUGGAGCAAUAUUACGACUG, the “self-splicing fitness (ln)” value runs as follows: (30 °C) 0.202 ± 0.15; (37 °C) 0.00578 ± 0.21.

With CUGGAGCAAUAUUACGACUU, the “self-splicing fitness (ln)” value (30 °C) is -3.44 ± 0.38 and the “self-splicing fitness (ln)” value (37 °C) was -2.38 ± 0.39.

As to CUGGAGCAAUAUUACGAGCG, the “self-splicing fitness (ln)” value (30 °C) is -1.05 ± 0.094 and the “self-splicing fitness (ln)” value (37 °C) is -0.179 ± 0.11.

On to CUGGAGCAAUAUUACGCAAU, for which the “self-splicing fitness (ln)” value is, setting by setting: (30 °C) -3.93 ± 0.33; (37 °C) -2.08 ± 0.29. Regarding CUGGAGCAAUAUUACGCAGA, the “self-splicing fitness (ln)” value (30 °C) was -3.56 ± 0.37. In the case of CUGGAGCAAUAUUACGCCAG, the “self-splicing fitness (ln)” value (37 °C) was -2.59 ± 0.33. Same read-out and setting: the same measure for CUGGAGCAAUAUUACGCCAU: -2.32 ± 0.34. For the sequence CUGGAGCAAUAUUACGCCCA, for the setting “37 °C”, the “self-splicing fitness (ln)” value was -2.1 ± 0.5. On to CUGGAGCAAUAUUACGCGGG, for which the “self-splicing fitness (ln)” value by setting is: (30 °C) -3.62 ± 0.33; (37 °C) -2.33 ± 0.31. With CUGGAGCAAUAUUACGCUGG, the “self-splicing fitness (ln)” value (37 °C) is -2.98 ± 0.35. Take CUGGAGCAAUAUUACGGAUC: the “self-splicing fitness (ln)” value is -2.82 ± 0.21 (30 °C) and -2.87 ± 0.35 (37 °C). Regarding CUGGAGCAAUAUUACGGCGC, the “self-splicing fitness (ln)” value (37 °C) was -1.02 ± 0.41. As to CUGGAGCAAUAUUACGUAAU, under “30 °C”, the “self-splicing fitness (ln)” value was -2.46 ± 0.29.

Consider CUGGAGCAAUAUUACGUACU, for which the “self-splicing fitness (ln)” value (37 °C) was -2.19 ± 0.43. Consider CUGGAGCAAUAUUACGUGGA, for which the “self-splicing fitness (ln)” value is, setting by setting: (30 °C) -1.96 ± 0.23; (37 °C) -2.63 ± 0.48. Turning to CUGGAGCAAUAUUACGUUGA, the “self-splicing fitness (ln)” value was -1.67 ± 0.34 (30 °C) and -2.26 ± 0.49 (37 °C).

With CUGGAGCAAUAUUACGUUUC, the “self-splicing fitness (ln)” value (30 °C) is -3.92 ± 0.31 and the “self-splicing fitness (ln)” value (37 °C) is -2.38 ± 0.31. Take CUGUAGCAAUAUUACGACAU: the “self-splicing fitness (ln)” value by setting is: (30 °C) -1.528 ± 0.014; (37 °C) -0.616 ± 0.033. For CUGUAGCAAUAUUACGACUG, the “self-splicing fitness (ln)” value runs as follows: (30 °C) -0.156 ± 0.12; (37 °C) -0.0808 ± 0.17. The like results for CUGUAGCAAUAUUACGAGUU were, in that order, -2.02 ± 0.3 and -3.02 ± 0.37. The like results for CUGUAGCAAUAUUACGAUUC were, in that order, -3.71 ± 0.23 and -3.19 ± 0.4. For CUGUAGCAAUAUUACGGACC, the “self-splicing fitness (ln)” value (30 °C) was -2.03 ± 0.47. CUGUAGCAAUAUUACGGAUC: the “self-splicing fitness (ln)” value (30 °C) was -3.93 ± 0.3 and the “self-splicing fitness (ln)” value (37 °C) is -3.45 ± 0.39. The like results for CUGUAGCAAUAUUACGGGAC were, in that order, -1.04 ± 0.18 and -0.365 ± 0.21. In the case of CUGUAGCAAUAUUACGGGCA, the “self-splicing fitness (ln)” value (37 °C) was -2.5 ± 0.49.

On to CUGUAGCAAUAUUACGGGUG, for which the “self-splicing fitness (ln)” value (30 °C) is -0.818 ± 0.084 and the “self-splicing fitness (ln)” value (37 °C) was -1.15 ± 0.099. In the same order, the values of CUGUAGCAAUAUUACGGUUC are -3.87 ± 0.14 and -3.71 ± 0.22. The like results for CUGUAGCAAUAUUACGUAAG were, in that order, -0.583 ± 0.081 and -0.353 ± 0.082.

For the sequence CUGUAGCAAUAUUACGUAUU, the “self-splicing fitness (ln)” value reads like this: (30 °C) -4.45 ± 0.29; (37 °C) -3.47 ± 0.33.

Turning to CUGUAGCAAUAUUACGUUAU, the “self-splicing fitness (ln)” value (30 °C) is -3.21 ± 0.22 and the “self-splicing fitness (ln)” value (37 °C) is -2.83 ± 0.23. The like results for CUGUAGCAAUAUUACGUUCG were, in that order, -0.00257 ± 0.13 and 0.798 ± 0.14. In the same order, the values of CUUAAGCAAUAUUACGAAGC are -3.09 ± 0.36 and -2.17 ± 0.31. In the case of CUUAAGCAAUAUUACGAAUC, the “self-splicing fitness (ln)” value (30 °C) is -2.97 ± 0.23. As to CUUAAGCAAUAUUACGACAC, the “self-splicing fitness (ln)” value is -3.04 ± 0.38 (30 °C) and -1.54 ± 0.44 (37 °C). For the sequence CUUAAGCAAUAUUACGACCG, the “self-splicing fitness (ln)” value runs as follows: (30 °C) 0.42 ± 0.14; (37 °C) -0.4 ± 0.16.

In the case of CUUAAGCAAUAUUACGAGAU, the “self-splicing fitness (ln)” value by setting is: (30 °C) -2.92 ± 0.22; (37 °C) -1.59 ± 0.2. The like results for CUUAAGCAAUAUUACGCAAC were, in that order, -3.55 ± 0.27 and -2.37 ± 0.26. Consider CUUAAGCAAUAUUACGCGCA, for which the “self-splicing fitness (ln)” value (30 °C) is -3.58 ± 0.35. Consider CUUAAGCAAUAUUACGCGGC, for which the “self-splicing fitness (ln)” value reads like this: (30 °C) -2.93 ± 0.24; (37 °C) -2.48 ± 0.27. As for CUUAAGCAAUAUUACGCGGG, the “self-splicing fitness (ln)” value (30 °C) was -2.83 ± 0.2 and the “self-splicing fitness (ln)” value (37 °C) is -2.92 ± 0.31.
